From patent US20210277140A1

Biological target: CD47 on Raji B cells (human) (UniProt Q08722)
Assay: cell-based or functional assay

whole cell eating of Raji B cells by CAR-P^FcRγ macrophages, antibody at 20 µg/ml: 2.5 fold
B1: anti human CD47 (mouse antibody), clone B6H12 (antibody, from another filing, IgG1, V domains shown)
VH: EVQLVESGGDLVKPGGSLKLSCAASGFTFSGYGMSWVRQTPDKRLEWVATITSGGTYTYYPDSVKGRFTISRDNAKNTLYLQIDSLKSEDTAIYFCARSLAGNAMDYWGQGTSVTVSS
VL: DIVMTQSPATLSVTPGDRVSLSCRASQTISDYLHWYQQKSHESPRLLIKFASQSISGIPSRFSGSGSGSDFTLSINSVEPEDVGVYYCQNGHGFPRTFGGGTKLEIK
